The results in this text go back to IntAct's records for PubMed 7538908.

The chains are these.
B1: Tumor necrosis factor receptor superfamily member 6 (Homo sapiens), P25445 (parent)
chain: MLGIWTLLPLVLTSVARLSSKSVNAQVTDINSKGLELRKTVTTVETQNLEGLHHDGQFCHKPCPPGERKARDCTVNGDEPDCVPCQEGKEYTDKAHFSSKCRRCRLCDEGHGLEVEINCTRTQNTKCRCKPNFFCNSTVCEHCDPCTKCEHGIIKECTLTSNTKCKEEGSRSNLGWLCLLLLPIPLIVWVKRKEVQKTCRKHRKENQGSHESPTLNPETVAINLSDVDLSKYITTIAGVMTLSQVKGFVRKNGVNEAKIDEIKNDNVQDTAEQKVQLLRNWHQLHGKKEAYDTLIKDLKKANLCTLAEKIQTIILKDITSDSENSNFRNEIQSLV

In the test the parent is B1. The settings on record: with ripk1_human RIPK1, Q13546.
Chain of ripk1_human RIPK1, Q13546 (Q13546 whole entry): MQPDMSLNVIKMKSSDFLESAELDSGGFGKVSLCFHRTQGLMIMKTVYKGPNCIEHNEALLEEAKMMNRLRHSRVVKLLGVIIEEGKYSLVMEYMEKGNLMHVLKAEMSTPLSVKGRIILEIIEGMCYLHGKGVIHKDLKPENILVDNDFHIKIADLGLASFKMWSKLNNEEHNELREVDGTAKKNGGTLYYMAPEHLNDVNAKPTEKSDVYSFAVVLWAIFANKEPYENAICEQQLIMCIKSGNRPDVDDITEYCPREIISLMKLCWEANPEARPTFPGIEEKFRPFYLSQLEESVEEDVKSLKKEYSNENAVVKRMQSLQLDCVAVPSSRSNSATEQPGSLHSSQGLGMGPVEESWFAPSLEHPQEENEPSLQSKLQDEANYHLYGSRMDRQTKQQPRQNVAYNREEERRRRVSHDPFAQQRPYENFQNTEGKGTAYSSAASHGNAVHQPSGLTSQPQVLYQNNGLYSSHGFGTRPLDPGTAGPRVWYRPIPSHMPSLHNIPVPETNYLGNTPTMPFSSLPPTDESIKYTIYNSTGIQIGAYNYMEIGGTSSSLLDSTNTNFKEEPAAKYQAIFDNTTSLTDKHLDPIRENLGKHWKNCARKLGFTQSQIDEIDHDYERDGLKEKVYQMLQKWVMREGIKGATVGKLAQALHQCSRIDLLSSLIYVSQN
As to MLGIWTLLPLVLTSVARLSSKSVNAQVTDINSKGLELRKTVTTVETQNLEGLHHDGQFCHKPCPPGERKARDCTVNGDEPDCVPCQEGKEYTDKAHFSSKCRRCRLCDEGHGLEVEINCTRTQNTKCRCKPNFFCNSTVCEHCDPCTKCEHGIIKECTLTSNTKCKEEGSRSNLGWLCLLLLPIPLIVWVKRKEVQKTCRKHRKENQGSHESPTLNPETVAINLSDVDLSKYITTIAGVMTLSQVKGFVRKNGNNEAKIDEIKNDNVQDTAEQKVQLLRNWHQLHGKKEAYDTLIKDLKKANLCTLAEKIQTIILKDITSDSENSNFRNEIQSLV [V254N], the “effect of a mutation on the interaction” value is “decreasing interaction”.
